From PMC4318144 (Genes & Development, 2015)

Target: the molecule itself
Assay: cryo-EM structure

B1: Dark protein, full-length (residues 1–1440) (natural protein, D. melanogaster, UniProt Q7KLI1 1-1440, looked up)
chain: MDFETGEHQYQYKDILSVFEDAFVDNFDCKDVQDMPKSILSKEEIDHIIMSKDAVSGTLRLFWTLLSKQEEMVQKFVEEVLRINYKFLMSPIKTEQRQPSMMTRMYIEQRDRLYNDNQVFAKYNVSRLQPYLKLRQALLELRPAKNVLIDGVLGSGKTWVALDVCLSYKVQCKMDFKIFWLNLKNCNSPETVLEMLQKLLYQIDPNWTSRSDHSSNIKLRIHSIQAELRRLLKSKPYENCLLVLLNVQNAKAWNAFNLSCKILLTTRFKQVTDFLSAATTTHISLDHHSMTLTPDEVKSLLLKYLDCRPQDLPREVLTTNPRRLSIIAESIRDGLATWDNWKHVNCDKLTTIIESSLNVLEPAEYRKMFDRLSVFPPSAHIPTILLSLIWFDVIKSDVMVVVNKLHKYSLVEKQPKESTISIPSIYLELKVKLENEYALHRSIVDHYNIPKTFDSDDLIPPYLDQYFYSHIGHHLKNIEHPERMTLFRMVFLDFRFLEQKIRHDSTAWNASGSILNTLQQLKFYKPYICDNDPKYERLVNAILDFLPKIEENLICSKYTDLLRIALMAEDEAIFEEAHKQVQRFDDRVWFTNHGRFHQHRQIINLGDNEGRHAVYLHNDFCLIALASGQILLTDVSLEGEDTYLLRDESDSSDILRMAVFNQQKHLITLHCNGSVKLWSLWPDCPGRRHSGGSKQQLVNSVVKRFIGSYANLKIVAFYLNEDAGLPEANIQLHVAFINGDVSILNWDEQDQEFKLSHVPVLKTMQSGIRCFVQVLKRYYVVCTSNCTLTVWDLTNGSSNTLELHVFNVENDTPLALDVFDERSKTATVLLIFKYSVWRLNFLPGLSVSLQSEAVQLPEGSFITCGKRSTDGRYLLLGTSEGLIVYDLKISDPVLRSNVSEHIECVDIYELFDPVYKYIVLCGAKGKQVVHVHTLRSVSGSNSHQNREIAWVHSADEISVMTKACLEPNVYLRSLMDMTRERTQLLAVDSKERIHLIKPAISRISEWSTITPTHAASNCKINAISAFNDEQIFVGYVDGVIIDVIHDTALPQQFIEEPIDYLKQVSPNILVASAHSAQKTVIFQLEKIDPLQPNDQWPLMMDVSTKYASLQEGQYIILFSDHGVCHLDIANPSAFVKPKDSEEYIVGFDLKNSLLFLAYENNIIDVFRLIFSCNQLRYEQICEEEIAQKAKISYLVATDDGTMLAMGFENGTLELFAVENRKVQLIYSIEEVHEHCIRQLLFSPCKLLLISCAEQLCFWNVTHMRNNQLEREQKRRRSRRHKQHSVTQEDAVDAAPIAADIDVDVTFVADEFHPVNRGTAELWRNKRGNAIRPELLACVKFVGNEARQFFTDAHFSHFYAIDDEGVYYHLQLLELSRLQPPPDPVTLDIANQYEDLKNLRILDSPLMQDSDSEGADVVGNLVLEKNGGVARATPILEEASS
Question: How did the “stoichiometry N” value turn out when B1 was run?
Answer: Its value is 16.
